Test results reported in patent CN114560934A.

Target: β-银环蛇毒素 (银环蛇) (UniProt P00617)

B1: β-BGT单克隆抗体株2B10E7 (antibody)
VH: LTMDFGLSWVFLVLTLKGVKCEVQLVESGGGLVKPGGSLKLSCAASGFAFSTSDISWVRQTPEKRLEWVTYISNGAGNTYNPDTDKGTFTISRDNAKNTLYVQMSSLKSEDTAMYYCARHNASSLQFAYWGQGTLVTVSAVKTTPPSVYPLAPVCGD
VL: DIVLTQSPASLAVSLGQRATISYRDSKSVSRSGYSYMHWNQQKPGQPPRLLIYLVSYLESGVPARFSGSGSGTDFTLNIHPVEEEDAATYYCQHTRELTRSEGGPSWKLNGLMLHQLYP
In the case of B1, the 检测限 is reported as 20 ng/mL.

B2: β-BGT单克隆抗体株3B10B7 (antibody)
VH: LTMNFGLSWVFLVLTLKGVKCVVQLLESGRGLVKPGGSLKLSCAASGFAFSTYDTSWVRQTPEKRLEWVTYTSRGAGNTYYPDTVKGRFTISRDNAKNTLYVQMSSLKSEDTAMYYCARQSAWSLPIDYWGQGTLVTVSAAKTTPPSVYPLAPVCGG
VL: DIVMTQTPASLAVSLGQRATISYRTSKRVTTSGYSYMHWNQQKPGQPPRLLIYLASILESGVPARFSGSGSGTDFTLNIHPVEEEDAATYYCQHISELIRSEGGPSWKSNGLMLHQLYP
For B2, the 检测限 was 20 ng/mL.
